The values below come from patent US20180296707A1, “PHARMACEUTICAL FORMULATION AND METHOD OF PREPARING THE SAME” (SeeCure Taiwan Co., Ltd., priority 2017, published 2018).

Molecules are shown by their SMILES.

Data set [1] deals with human colorectal tumor. As to the kind of experiment: PET/CT imaging, tumor/muscle count density in colorectal tumor models.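 Note: human colorectal tumors grown on the hind legs of athymic nude mice, imaged by micro-PET/CT 21 to 28 days post inoculation, once tumors reached roughly 0.5 cm across.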 The format is in vivo, athymic nude mice. Particulars: 500 μCi/mouse iv.
Description: (§1) Briefly, athymic nude mice (15±2 g) bearing human tumors (at hind legs) derived from the colorectal and pancreatic cell line were used for imaging studies. Studies were performed 21 to 28 days after inoculation when tumors were approximately 0.5 cm in diameter. Scintigraphic images were obtained either from a micro-PET (Inveon) embedded in the gantries coordinate PET/CT data acquisition. […] The static images were obtained at 0.5, 1 and 2 hrs.
Experiment in data set [2]: as above
The format is in vivo, athymic nude mice. Conditions: athymic nude, tumor/muscle, 500 uCi/mouse, total radioactivity, 500 μCi/mouse iv.
Description: as §1

For data set [3], the system named is human pancreatic tumor. As to the kind of experiment: PET/CT imaging, tumor/muscle count density in pancreatic tumor models. Particulars: human pancreatic-tumor bearing mouse, FIG. 12.
Description: as §1
The target of data set [4] is SSTR2 (Homo sapiens, UniProt P30874). Conditions: background statement; cited from earlier work.
For data set [5], the target named is SSTR3 (Homo sapiens, UniProt P32745). Particulars: background statement; cited from earlier work.
SSTR3, sequence (P32745 whole entry, species assumed): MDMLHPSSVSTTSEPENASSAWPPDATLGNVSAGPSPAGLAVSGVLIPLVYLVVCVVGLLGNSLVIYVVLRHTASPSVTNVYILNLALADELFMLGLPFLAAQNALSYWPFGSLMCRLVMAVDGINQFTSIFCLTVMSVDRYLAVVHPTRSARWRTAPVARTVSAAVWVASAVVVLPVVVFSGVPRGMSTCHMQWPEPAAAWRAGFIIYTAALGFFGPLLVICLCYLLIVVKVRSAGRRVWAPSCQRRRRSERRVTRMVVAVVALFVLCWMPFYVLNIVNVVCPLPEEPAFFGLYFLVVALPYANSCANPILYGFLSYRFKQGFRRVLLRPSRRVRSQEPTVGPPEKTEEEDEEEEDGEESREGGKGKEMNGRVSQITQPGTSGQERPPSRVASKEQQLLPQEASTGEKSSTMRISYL

SSTR2, sequence (P30874 whole entry, species assumed): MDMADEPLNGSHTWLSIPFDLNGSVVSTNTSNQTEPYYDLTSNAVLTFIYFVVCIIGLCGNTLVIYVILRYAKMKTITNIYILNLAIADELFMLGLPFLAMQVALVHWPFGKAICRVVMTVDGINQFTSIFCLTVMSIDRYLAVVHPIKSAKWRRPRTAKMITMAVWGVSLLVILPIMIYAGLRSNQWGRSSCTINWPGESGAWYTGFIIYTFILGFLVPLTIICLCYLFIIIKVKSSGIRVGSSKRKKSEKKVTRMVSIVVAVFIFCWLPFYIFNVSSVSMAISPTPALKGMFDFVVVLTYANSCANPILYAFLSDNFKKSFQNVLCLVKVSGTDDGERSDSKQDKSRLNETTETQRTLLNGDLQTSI

For the molecule `C[C@@H](O)[C@H](NC(=O)[C@@H]1CSSC[C@H](NC(=O)[C@@H](Cc2ccccc2)NC(=O)CN2CCN(CC(=O)O)CCN(CC(=O)O)CCN(CC(=O)O)CC2)C(=O)N[C@@H](Cc2ccc(O)cc2)C(=O)N[C@H](Cc2c[nH]c3ccccc23)C(=O)N[C@@H](CCCCN)C(=O)N[C@@H]([C@@H](C)O)C(=O)N1)C(=O)O` [^68Ga-DOTATATE, metal not drawn], the Muscle count density in data set [1] (frame 0, midpoint 15 sec) is reported as 0.242; in data set [1] (frame 1, midpoint 30 sec), 0.273; in data set [1] (frame 2, midpoint 45 sec) it was 0.237; in data set [1] (frame 3, midpoint 60 sec), 0.255; in data set [1] (frame 4, midpoint 90 sec), 0.238; in data set [1] (frame 5, midpoint 120 sec), 0.227. For the same molecule, the Muscle count density in data set [1] (frame 6, midpoint 180 sec) came to 0.235; in data set [1] (frame 7, midpoint 240 sec), 0.233; in data set [1] (frame 8, midpoint 300 sec), 0.231; in data set [1] (frame 9, midpoint 360 sec) it was 0.232; in data set [1] (frame 10, midpoint 540 sec), 0.230; in data set [1] (frame 11, midpoint 720 sec), 0.231. Further, the Muscle count density in data set [1] (frame 12, midpoint 900 sec) worked out at 0.227; in data set [1] (frame 13, midpoint 1200 sec), 0.206; in data set [1] (frame 14, midpoint 1500 sec), 0.200; in data set [1] (frame 15, midpoint 1800 sec) it was 0.180. Moreover, the Tumor count density is listed as 0.290 in data set [1] (frame 0, midpoint 15 sec); 0.286 in data set [1] (frame 1, midpoint 30 sec); 0.298 in data set [1] (frame 2, midpoint 45 sec); 0.324 in data set [1] (frame 3, midpoint 60 sec); 0.296 in data set [1] (frame 4, midpoint 90 sec); 0.296 in data set [1] (frame 5, midpoint 120 sec). The Tumor count density in data set [1] (frame 6, midpoint 180 sec) is 0.284; in data set [1] (frame 7, midpoint 240 sec), 0.303; in data set [1] (frame 8, midpoint 300 sec) it was 0.300; in data set [1] (frame 9, midpoint 360 sec), 0.286; in data set [1] (frame 10, midpoint 540 sec), 0.287; in data set [1] (frame 11, midpoint 720 sec), 0.300. Besides, the Tumor count density in data set [1] (frame 12, midpoint 900 sec) was determined as 0.294; in data set [1] (frame 13, midpoint 1200 sec), 0.292; in data set [1] (frame 14, midpoint 1500 sec), 0.288; in data set [1] (frame 15, midpoint 1800 sec) it was 0.279. Further, in data set [2] (colorectal tumor-bearing mice, dynamic images 0 to 30 minutes, read-out: average tumor/muscle (T/M) count density ratios, approximate range), the tissue to tissue ratio was found to be 1.2. For the same molecule, the tissue to tissue ratio at 15 s in data set [2] (frame 0, midpoint 15 sec) is 1.2. Further, the tissue to tissue ratio at 0.5 min in data set [2] (frame 1, midpoint 30 sec) turned out to be 1.05. In addition, the tissue to tissue ratio at 45 s in data set [2] (frame 2, midpoint 45 sec) is 1.26. Besides, the tissue to tissue ratio at 1 min in data set [2] (frame 3, midpoint 60 sec) came out at 1.27. In addition, in data set [2] (frame 4, midpoint 90 sec), the tissue to tissue ratio at 0.025 h was determined as 1.24. Moreover, in data set [2] (frame 5, midpoint 120 sec), the tissue to tissue ratio at 2 min is 1.3. For the same molecule, the tissue to tissue ratio at 0.05 h in data set [2] (frame 6, midpoint 180 sec) was 1.21. Moreover, the tissue to tissue ratio at 4 min in data set [2] (frame 7, midpoint 240 sec) was determined as 1.3. In addition, in data set [2] (frame 8, midpoint 300 sec), the tissue to tissue ratio at 5 min amounted to 1.3. The tissue to tissue ratio at 0.1 h in data set [2] (frame 9, midpoint 360 sec) worked out at 1.23. In data set [2] (frame 10, midpoint 540 sec), the tissue to tissue ratio at 0.15 h is 1.25. Also, the tissue to tissue ratio at 0.2 h in data set [2] (frame 11, midpoint 720 sec) came out at 1.3. The tissue to tissue ratio at 0.25 h in data set [2] (frame 12, midpoint 900 sec) turned out to be 1.29. Besides, the tissue to tissue ratio at 20 min in data set [2] (frame 13, midpoint 1200 sec) is 1.42. In addition, the tissue to tissue ratio at 25 min in data set [2] (frame 14, midpoint 1500 sec) amounted to 1.44. In addition, the tissue to tissue ratio at 0.5 h in data set [2] (frame 15, midpoint 1800 sec) was found to be 1.55.
For `O=C([O-])CN1CCN(CC(=O)[O-])CCN(CC(=O)O)CCN(CC(=O)[O-])CC1.[68Ga+3]` [^68Ga-DOTA], in data set [3], the “bladder uptake (PET/CT)” value is on record as “high bladder uptake”, the “clearance (PET/CT)” value was “fast clearance” and the “visualization of neuroendocrine tumors by PET/CT” value was “could not be used to visualize neuroendocrine tumors”.
Consider `C[C@@H](O)[C@@H]1NC(=O)[C@H](CCCCN)NC(=O)[C@@H](Cc2c[nH]c3ccccc23)NC(=O)[C@H](Cc2ccccc2)NC(=O)[C@@H](NC(=O)[C@H](N)Cc2ccccc2)CSSC[C@@H](C(=O)N[C@H](CO)[C@@H](C)O)NC1=O` [octreotide], for which the “affinity to SSTR2 subtype” value in data set [4] is “high affinity”. In data set [5], the “affinity to SSTR3 subtype” value is on record as “low affinity”.
